Source: paper PMC6609482
Read-outs that look alike come from different tables or passages of the source.

How the values were obtained:
[1] = molecular target: T1, HMCES SRAP domain (SRAPd) WT (Homo sapiens, UniProt Q96FZ2 2-270); experiment: crystal structure
T1 sequence: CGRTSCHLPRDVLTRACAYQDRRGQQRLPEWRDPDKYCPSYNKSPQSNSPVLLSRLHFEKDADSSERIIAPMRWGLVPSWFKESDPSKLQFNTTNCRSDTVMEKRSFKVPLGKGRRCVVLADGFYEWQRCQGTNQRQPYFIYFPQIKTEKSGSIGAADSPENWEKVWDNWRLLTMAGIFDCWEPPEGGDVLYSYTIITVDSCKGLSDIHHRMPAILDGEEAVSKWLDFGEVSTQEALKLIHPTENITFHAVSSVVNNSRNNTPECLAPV

[2] = molecular target: T1, HMCES SRAP domain (SRAPd) WT; experiment: fluorescence polarization
[3] = molecular target: T1, HMCES SRAP domain (SRAPd) WT; experiment: crystal structure; remark: listed apart in the source

B1: DNA_6nt (3' overhang) (dsDNA)
DNA 1: CCAGACGTTGTT
DNA 2: GTCTTG
- binding result [1]: binds

B2: 3-nt gap DNA (dsDNA)
DNA 1: TCTTCTGGTCCGGATGGTAGTTAAGTGTTGAC
DNA 2: GGACCAGAAGA
DNA 3: GTCAACACTTAACTACCA
- binding signal [2]: ~7 fold higher affinity than dsDNA of same sequence

B3: DNA_3nt (3' overhang) (dsDNA)
DNA 1: CCAGACGTT
DNA 2: GTCTTG
- binding result [3]: binds
